Usually Kd stands for the equilibrium constant for the complex coming apart.

What all share (experiment): SPR (ProteOn XPR36), antibody immobilised, antigen applied
Test [1] has as its target T1, recombinant full-length (mature) human CXCL10 (human, UniProt P02778 22-98).
T1 construct: Recombinant protein from Genscript, used for immunisation and as the assay standard; also called full-length CXCL10; IP-10
T1 sequence: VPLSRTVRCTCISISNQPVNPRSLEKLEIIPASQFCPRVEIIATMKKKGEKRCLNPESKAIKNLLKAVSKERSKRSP
The protocol: (§1) Two monoclonal antibodies; namely mAb-RA2 specific for full length, N-terminally intact CXCL10, and mAb-RG2 specific for both full length and truncated CXCL10, were analysed by Surface Plasmon Resonance (SPR) for binding affinity against both forms of CXCL10. Experiments were performed using a ProteOn XPR36 SPRi biosensor (BioRad), equipped with a GLC chip. The chip was conditioned with 0.5% SDS, 50 mM NaOH and 100 mM HCl, and then the lanes were activated using equal parts 1-Ethyl-3-(3-dimethylaminopropyl) carbodiimide (EDAC) and N-Hydroxysuccinimide (NETS). The antibodies were immobilised in separate lanes at a concentration of 50 μg/mL in sodium acetate buffer (pH4.5), then each lane deactivated using ethanolamine. Antigens were applied to each lane, and binding was recorded as RU. All channels were regenerated using 0.85% […] between applications of antigen. Interspot and control RU were subtracted to give specific binding.
(§2) The inventors developed a monoclonal antibody that could differentiate between the N-terminally intact, chemotactically active form of CXCL10 and all other variants. Using full-length CXCL10 protein as the antigen, hybridoma clones were isolated and screened for reactivity against (i) full-length CXCL10 protein; and (ii) short synthetic peptides, representing either the intact or truncated N-terminus of CXCL10. Antibodies secreted by clone mAb-RA2 recognized both full-length and N-terminally intact CXCL10, but not the N-terminally truncated form (Table 4). Antibodies secreted by clone mAb-RG2 reacted with all proteoforms of CXCL10 tested. […] The open reading frames encoding the variable regions of both antibodies was sequenced.

For test [2], the target named is T2, short peptide comprising the intact N-terminus of human CXCL10 (NH2-VPLSRTVRCTCISISNQPVNPRSLE-COOH) (human).
T2 construct: Synthesised by Mimotopes; also called N-terminally intact CXCL10 peptide
T2 peptide: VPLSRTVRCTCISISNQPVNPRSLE
The protocol:
as §1, §2

Test [3] deals with T3, short peptide comprising the truncated N-terminus of human CXCL10 (NH2-LSRTVRCTCISISNQPVNPRSLE-COOH) (human).
T3 construct: Synthesised by Mimotopes; also called VP-truncated N-term; N-terminally truncated form
T3 peptide: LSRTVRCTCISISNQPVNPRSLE
The protocol:
as §1, §2

B1: anti-CXCL10 monoclonal antibody mAb-RG2 (antibody, V domains shown)
VH: QIQLVQSGPDLKKPGETVKISCKASGYTFTNYGMNWVKQAPGKGLKWMAWINTNSGEPTYAEEFKGRFALSLDTSASTAYLQINNLKNEDTATYFCARYTGEFFYNGSSYVSYWYFDVWGAGATVTVSS
VL: DIVLTQSPASLAVSLGQRATISCRASKSVSSSGYSYMHWYQQKPGQPPKLLIYLASNLESGVPARFSGSGSGSDFTLNIHPVEEEDAATYYCQHSRDLPWTFGGGTKLEIKR
notes: It was immobilised on the chip in SPR, and used biotinylated as the detection antibody in the sandwich ELISA (ART); also called anti-CXCL10 antibody RG2
As to B1, the Kd in test [1] came out at 0.00389 nM; in test [2] it was 3.54 nM; in test [3], 3 nM.

B2: anti-CXCL10 monoclonal antibody mAb-RA2 (antibody, V domains shown)
VH: QVQLQQPGAELVRPGASVKLSCKASGYTFTSHWMIWVKQRPGQGLEWIGMIDPSDSATHYNQMFKDKATLTVDKSSSTAYMQLSSLTSEDSAVYYCANTRHDESWGQGTLVTVSA
VL: DIQMTQSPSSLSASLGGRVTITCKASQDIHKYIAWYQHKPGKGPRLLIYDTSTLQPGIPSRFTGSGSGRDYSFSISNLEPEDIATYYCLQYDDLYTFGGGTKLEIKR
notes: It was immobilised on the chip in SPR, and used biotinylated as the detection antibody in the sandwich ELISA (ART); also called anti-CXCL10 antibody RA2
As for B2, the Kd in test [1] amounted to 0.49 nM; in test [2] it was 0.736 nM. In test [3], the binding result was “no binding”.
